The target in assay [1] is human voltage-gated sodium channel Nav1.4 (human) (UniProt P35499). Put plainly: cell-based or functional assay.
Assay [2] has as its target human voltage-gated sodium channel Nav1.5 (human) (UniProt Q14524). As to the kind of experiment: cell-based or functional assay.
Assay [3] has as its target human voltage-gated sodium channel Nav1.7 (human) (UniProt Q15858). As to the kind of experiment: cell-based or functional assay.
In assay [4] the target is TTX-sensitive Nav channels in mouse DRG neuron. Put plainly: cell-based or functional assay.
In assay [5] the target is TTX-resistant Nav channels in mouse DRG neurons. Put plainly: cell-based or functional assay.
Assay [6] deals with TTX-sensitive Nav channels in mouse DRG neurons. Put plainly: cell-based or functional assay.
The target in assay [7] is human voltage-gated sodium channel Nav1.8 (human) (UniProt Q9Y5Y9). As to the kind of experiment: cell-based or functional assay.
Sequence of human voltage-gated sodium channel Nav1.8 (human) (Q9Y5Y9 whole entry): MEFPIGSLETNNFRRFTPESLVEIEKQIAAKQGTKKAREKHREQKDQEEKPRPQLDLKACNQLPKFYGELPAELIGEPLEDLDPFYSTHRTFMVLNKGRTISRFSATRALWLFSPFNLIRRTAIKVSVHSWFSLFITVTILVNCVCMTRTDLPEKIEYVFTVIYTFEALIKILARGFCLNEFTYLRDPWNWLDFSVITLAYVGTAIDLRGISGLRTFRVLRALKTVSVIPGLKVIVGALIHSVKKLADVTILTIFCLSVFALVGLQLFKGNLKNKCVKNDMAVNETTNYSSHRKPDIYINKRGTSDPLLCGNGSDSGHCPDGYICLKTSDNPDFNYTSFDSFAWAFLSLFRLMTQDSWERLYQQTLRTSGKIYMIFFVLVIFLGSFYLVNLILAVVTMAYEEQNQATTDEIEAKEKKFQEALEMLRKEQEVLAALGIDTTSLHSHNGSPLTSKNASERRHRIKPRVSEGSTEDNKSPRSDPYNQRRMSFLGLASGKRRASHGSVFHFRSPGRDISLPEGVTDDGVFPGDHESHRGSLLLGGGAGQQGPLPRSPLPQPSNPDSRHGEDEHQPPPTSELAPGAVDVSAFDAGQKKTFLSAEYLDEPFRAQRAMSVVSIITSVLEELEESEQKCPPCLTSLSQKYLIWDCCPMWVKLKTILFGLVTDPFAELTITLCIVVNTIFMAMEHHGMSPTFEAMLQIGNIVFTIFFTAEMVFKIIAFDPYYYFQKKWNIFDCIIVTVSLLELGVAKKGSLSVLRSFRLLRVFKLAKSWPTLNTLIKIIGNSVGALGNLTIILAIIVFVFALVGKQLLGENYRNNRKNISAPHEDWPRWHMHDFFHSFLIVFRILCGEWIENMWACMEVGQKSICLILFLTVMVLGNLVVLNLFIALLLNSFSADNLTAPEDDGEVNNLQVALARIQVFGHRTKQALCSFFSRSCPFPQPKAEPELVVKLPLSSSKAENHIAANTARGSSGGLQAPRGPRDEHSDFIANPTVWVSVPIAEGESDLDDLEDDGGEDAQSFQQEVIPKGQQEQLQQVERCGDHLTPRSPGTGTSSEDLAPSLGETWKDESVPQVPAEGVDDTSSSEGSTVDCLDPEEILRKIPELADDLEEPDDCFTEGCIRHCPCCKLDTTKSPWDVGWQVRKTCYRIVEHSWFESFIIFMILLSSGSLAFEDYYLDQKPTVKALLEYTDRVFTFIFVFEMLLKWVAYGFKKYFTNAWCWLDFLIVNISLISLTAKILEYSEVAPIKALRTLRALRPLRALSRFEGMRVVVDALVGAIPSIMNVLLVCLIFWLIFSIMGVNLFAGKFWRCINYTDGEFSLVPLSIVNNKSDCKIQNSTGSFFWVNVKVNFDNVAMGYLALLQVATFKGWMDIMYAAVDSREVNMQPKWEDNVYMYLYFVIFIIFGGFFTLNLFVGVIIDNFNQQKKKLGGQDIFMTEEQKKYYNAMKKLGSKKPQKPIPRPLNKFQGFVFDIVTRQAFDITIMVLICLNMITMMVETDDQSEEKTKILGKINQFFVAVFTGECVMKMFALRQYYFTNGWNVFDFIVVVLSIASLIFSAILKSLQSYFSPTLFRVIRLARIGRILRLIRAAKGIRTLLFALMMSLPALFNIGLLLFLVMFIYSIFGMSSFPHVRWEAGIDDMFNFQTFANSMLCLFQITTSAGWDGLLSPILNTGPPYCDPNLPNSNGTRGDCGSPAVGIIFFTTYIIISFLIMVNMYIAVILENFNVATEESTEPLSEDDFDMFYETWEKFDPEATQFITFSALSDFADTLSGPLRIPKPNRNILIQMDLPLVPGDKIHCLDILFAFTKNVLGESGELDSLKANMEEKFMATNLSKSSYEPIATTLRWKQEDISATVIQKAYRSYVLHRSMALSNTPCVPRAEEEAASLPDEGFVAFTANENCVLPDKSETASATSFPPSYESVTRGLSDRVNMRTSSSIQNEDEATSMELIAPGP
For assay [8], the target named is human voltage-gated sodium channel Nav1.4 (human) (UniProt P35499). Put plainly: cell-based or functional assay. The source holds these as a separate data set.
The target in assay [9] is human voltage-gated sodium channel Nav1.5 (human) (UniProt Q14524). Put plainly: cell-based or functional assay. This is another data set of the same source.
Sequence of human voltage-gated sodium channel Nav1.5 (human) (Q14524 whole entry): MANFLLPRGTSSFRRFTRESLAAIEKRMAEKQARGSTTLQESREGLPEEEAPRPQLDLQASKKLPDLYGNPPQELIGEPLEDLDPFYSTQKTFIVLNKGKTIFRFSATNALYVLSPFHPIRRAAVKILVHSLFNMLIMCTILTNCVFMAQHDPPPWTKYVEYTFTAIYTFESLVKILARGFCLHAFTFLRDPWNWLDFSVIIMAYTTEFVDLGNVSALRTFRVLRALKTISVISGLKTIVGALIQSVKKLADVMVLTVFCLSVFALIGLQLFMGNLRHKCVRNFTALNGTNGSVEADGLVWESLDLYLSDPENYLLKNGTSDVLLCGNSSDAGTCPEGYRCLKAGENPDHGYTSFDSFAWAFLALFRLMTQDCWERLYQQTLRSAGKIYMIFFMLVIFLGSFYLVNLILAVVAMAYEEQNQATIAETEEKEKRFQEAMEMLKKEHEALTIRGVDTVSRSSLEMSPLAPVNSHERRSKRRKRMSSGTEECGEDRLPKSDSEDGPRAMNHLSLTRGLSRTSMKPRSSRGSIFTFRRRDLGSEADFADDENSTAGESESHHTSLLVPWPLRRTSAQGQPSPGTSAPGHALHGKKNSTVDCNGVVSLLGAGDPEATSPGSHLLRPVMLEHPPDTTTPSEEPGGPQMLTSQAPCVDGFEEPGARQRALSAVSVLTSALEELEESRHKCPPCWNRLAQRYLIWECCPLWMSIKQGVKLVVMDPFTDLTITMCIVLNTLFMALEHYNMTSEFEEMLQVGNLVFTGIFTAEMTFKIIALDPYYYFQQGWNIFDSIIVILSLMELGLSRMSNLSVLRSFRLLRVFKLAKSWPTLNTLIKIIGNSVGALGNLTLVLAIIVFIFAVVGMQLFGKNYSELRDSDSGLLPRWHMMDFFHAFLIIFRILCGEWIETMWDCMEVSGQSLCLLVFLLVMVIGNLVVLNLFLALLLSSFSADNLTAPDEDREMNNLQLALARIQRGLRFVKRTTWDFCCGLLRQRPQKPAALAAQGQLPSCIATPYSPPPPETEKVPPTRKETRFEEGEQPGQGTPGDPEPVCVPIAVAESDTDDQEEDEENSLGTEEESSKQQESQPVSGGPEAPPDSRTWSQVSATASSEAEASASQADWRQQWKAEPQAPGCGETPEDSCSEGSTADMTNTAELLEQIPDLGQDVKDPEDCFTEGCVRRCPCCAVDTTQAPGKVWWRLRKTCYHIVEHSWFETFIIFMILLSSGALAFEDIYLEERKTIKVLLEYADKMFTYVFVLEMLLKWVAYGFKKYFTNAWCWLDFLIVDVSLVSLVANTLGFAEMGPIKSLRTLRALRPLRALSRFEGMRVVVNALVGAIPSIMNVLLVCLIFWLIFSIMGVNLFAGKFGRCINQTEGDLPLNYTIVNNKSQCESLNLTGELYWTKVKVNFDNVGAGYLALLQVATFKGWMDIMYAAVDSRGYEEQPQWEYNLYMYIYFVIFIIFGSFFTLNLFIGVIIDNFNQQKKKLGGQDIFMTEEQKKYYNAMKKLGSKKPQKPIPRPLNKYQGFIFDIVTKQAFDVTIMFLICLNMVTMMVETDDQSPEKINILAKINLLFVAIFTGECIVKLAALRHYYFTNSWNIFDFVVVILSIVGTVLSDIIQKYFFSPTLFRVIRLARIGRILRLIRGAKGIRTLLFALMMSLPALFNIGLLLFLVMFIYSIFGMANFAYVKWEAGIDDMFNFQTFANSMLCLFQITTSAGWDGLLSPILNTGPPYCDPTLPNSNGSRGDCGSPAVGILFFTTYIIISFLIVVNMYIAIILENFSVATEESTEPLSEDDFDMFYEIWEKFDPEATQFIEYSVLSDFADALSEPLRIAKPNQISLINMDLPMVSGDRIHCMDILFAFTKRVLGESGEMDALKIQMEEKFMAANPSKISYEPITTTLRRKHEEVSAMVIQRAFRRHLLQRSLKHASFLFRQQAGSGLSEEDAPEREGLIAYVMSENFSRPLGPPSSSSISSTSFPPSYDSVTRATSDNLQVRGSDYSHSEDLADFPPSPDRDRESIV
Assay [10] concerns the target human voltage-gated sodium channel Nav1.7 (human) (UniProt Q15858). As to the kind of experiment: cell-based or functional assay. The source holds these as a separate data set.
For assay [11], the target named is human voltage-gated sodium channel Nav1.3 (human) (UniProt Q9NY46). As to the kind of experiment: cell-based or functional assay.
Assay [12] has the same target. As to the kind of experiment: cell-based or functional assay. The source holds these as a separate data set.
For assay [13], the target named is human voltage-gated sodium channel Nav1.8 (human), Q9Y5Y9. Conditions: chains peptide; modification not given.

Values joined by “and” are separate entries in the source; they are usually repeats but may differ in a detail not shown here. Equal values may be shown once. Read-outs that look alike come from different tables or passages of the source.

Take “Atz(NPEG10)-[Nle6]JzTx-V(1-29) (peptide)”: in [1], the Nav1.4/Nav1.7 was found to be 1 fold and the PX hNav1.4 Tonic IC50 came to 8 nM. Moreover, in assay [2], the Nav1.5/Nav1.7 is 629 fold and the PX hNav1.5 Tonic IC50 amounted to 3770 nM. In assay [3], this molecule displayed a PX hNav1.7 Tonic IC50 of 6 nM.

In assay [1], “Atz(PEG11-benzylthioacetamide)-[Nle6]JzTx-V(1-29) (peptide)” had a Nav1.4/Nav1.7 of 9 fold and a PX hNav1.4 Tonic IC50 of 13 nM. In assay [2], the Nav1.5/Nav1.7 is 1420 fold and the PX hNav1.5 Tonic IC50 was 1980 nM. The PX hNav1.7 Tonic IC50 in [3] amounted to 1.4 nM.

Regarding “Bis-{Atz(PEG23*)-[Nle6]JzTx-V(1-29)}-5-((2-(benzylthio)acetamido)methyl)isophthalamide (peptide)”, in assay [1], the Nav1.4/Nav1.7 was 5 fold and 3 fold. Further, the PX hNav1.5 Tonic IC50 in [2] was 720 nM and 1180 nM.

“CyA-[Nle6,Lys(Pra)14,Glu28]JzTx-V(1-29) (peptide)” registered a fold loss of potency against JzTx-V on TTX-sensitive current, mouse DRG neurons in [4] of 3 fold.

The molecule GpTx-1 (peptide) showed a Nav1.7 whole cell patch clamp [WCPC] IC50 in assay [3] of 3 nM.

JzTx-45 (peptide) returned a PX hNav1.4 Tonic IC50 in [1] of 321 nM. In addition, in assay [2], the PX hNav1.5 Tonic IC50 was determined as 7460 nM. This molecule also gave a PX hNav1.7 Tonic IC50 in assay [3] of 122 nM.

Turning to JzTx-V(1-29) (peptide), the Mean IC50, fully non-inactivated (WCPC) in assay [5] was above 1000 nM; in assay [6], 75 nM; in assay [2], 882 nM; in assay [3], 0.141 nM; in assay [7], 810 nM. Besides, the Mean IC50, partially inactivated (WCPC) in assay [5] was above 1000 nM; in [6] it was 18 nM; in [2], 426 nM; in assay [3], 0.162 nM; in assay [7], 530 nM. Also, the 1.x/1.7, fully non-inactivated amounted to 530 fold in assay [6], 6230 fold in [2] and 5720 fold in assay [7]. Further, the 1.x/1.7, partially inactivated amounted to 111 fold in assay [6], 2640 fold in [2] and 3280 fold in [7]. Moreover, in assay [1], the PX hNav1.4 Tonic IC50 is 3 nM and 2 nM. This molecule also had an average IC50 against hNav1.4, PX assay format in assay [1] of 2 nM. In addition, the IC50 (IonWorks Quattro) in assay [2] was 7200 nM; in assay [3], 20 nM; in assay [8], 200 nM; in assay [9], above 7000 nM; in assay [10], 40 nM. In assay [2], the PX hNav1.5 Tonic IC50 was 2210 nM and 3250 nM and 1600 nM.

In assay [4], Pra-[Nle6]JzTx-V(1-29) (peptide) gave a fold potency over JzTx-V on TTX-sensitive current, mouse DRG neurons of 3 fold. In assay [3], this molecule gave a fold improvement in hNav1.7 potency over wild type JzTx-V, WCPC of 190 fold and a fold potency against hNav1.7 over wild type JzTx-V(1-29), WCPC of 200 fold.

[1-Nal7]JzTx-V(1-29) (peptide) showed a PX hNav1.4 Tonic IC50 in assay [1] of 0.9 nM. The molecule also yielded a PX hNav1.5 Tonic IC50 in assay [2] of 1420 nM. Moreover, the PX hNav1.7 Tonic IC50 in assay [3] came out at 0.4 nM.

[Abu20]JzTx-V(1-29) (peptide): the IC50 (IonWorks Quattro) in assay [11] was 970 nM; in assay [1], 900 nM; in assay [2] it was 10600 nM; in assay [3] it was 50 nM. In assay [1], the Nav1.4/Nav1.7 (ratio of IC50s) stood at 19.

Regarding [Cit20]JzTx-V(1-29) (peptide), the IC50 (IonWorks Quattro) in assay [11] was determined as 350 nM; in assay [1] it was 500 nM; in assay [2] it was 6800 nM; in assay [3], 40 nM. Besides, the Nav1.4/Nav1.7 (ratio of IC50s) in assay [1] came to 15.

Regarding [Cpa20]JzTx-V(1-29) (peptide), the IC50 (IonWorks Quattro) in [11] was above 5000 nM; in assay [1], above 5000 nM; in assay [2], 14200 nM; in [3], 210 nM. In addition, the Nav1.4/Nav1.7 (ratio of IC50s) in [1] was 24.

In the case of [Nle6]JzTx-V(1-29) (peptide), the PX hNav1.7 Tonic IC50 in assay [3] was 0.586 nM. The IC50 (IonWorks Quattro) in assay [12], in assay [8], in assay [9] and in assay [10] was above 5000 nM throughout.

Regarding [Nva20]JzTx-V(1-29) (peptide), the IC50 (IonWorks Quattro) is above 5000 nM in assay [11], 3100 nM in assay [1], 10400 nM in [2] and 170 nM in [3]. The Nav1.4/Nav1.7 (ratio of IC50s) in assay [1] is 19.

In [3], “[Phe6,Atz(2 kDa EtO-PEG*-{[Phe6,Atz13*]GpTx-1(1-34)})13]GpTx-1(1-34) (peptide)” came in with a Nav1.7 WCPC IC50 of 0.58 nM.

B1: JzTx-V(1-29) (peptide)
chain: YCQKWMWTCDSKRACCEGLRCKLWCRKII
B1: the IC50 (commonly the midpoint of a concentration-inhibition curve) in assay [13] was 630 nM and 430 nM.

Source of the values: patent US20150023988A1.
